Reference: US20260001928A1 (CORTERIA PHARMACEUTICALS, priority 2022, published 2026)
*1 amine or outer side, *2 acyl side, *3 side chain or, on linkers, in order; H or OH if unused. Where no end group is shown, it is not given here. Side-chain parts run from the residue outwards. [ ]: non-standard residue; d: D form. The star is where a group is joined. C18 diacid = O=C(O)CCCCCCCCCCCCCCCCC(=O)*; C16 diacid = O=C(O)CCCCCCCCCCCCCCC(=O)*; γGlu = O=C(O)[C@H](CCC(=O)[*:2])N[*:1]; NMeI = CC[C@H](C)[C@H](NC)C(=O)O; Abu = CC[C@H](N)C(=O)O; Dap = NC[C@H](N)C(=O)O; AEEA = NCCOCCOCC(=O)O; Aib = CC(C)(N)C(=O)O

T1: CRF1R receptor (UniProt P34998 24-415, limits assumed)
T1 sequence (looked up): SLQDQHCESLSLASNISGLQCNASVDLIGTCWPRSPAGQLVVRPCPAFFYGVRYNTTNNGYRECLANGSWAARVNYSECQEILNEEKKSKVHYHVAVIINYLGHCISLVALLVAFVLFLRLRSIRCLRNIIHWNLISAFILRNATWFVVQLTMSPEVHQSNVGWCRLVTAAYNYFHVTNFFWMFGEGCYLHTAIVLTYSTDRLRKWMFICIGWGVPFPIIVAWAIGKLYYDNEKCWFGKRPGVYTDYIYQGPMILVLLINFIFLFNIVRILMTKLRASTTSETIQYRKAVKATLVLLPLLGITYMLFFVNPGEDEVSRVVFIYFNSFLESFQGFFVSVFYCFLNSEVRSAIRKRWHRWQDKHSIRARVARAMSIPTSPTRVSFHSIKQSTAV


Columns and labels:
CRF1R receptor = molecular target: T1, CRF1R receptor; assay: cell-based or functional assay
[1] = molecular target: human corticotropin-releasing factor 2a (CRF2a receptor) (human), Q13324; assay: cell-based or functional assay
Chain of human corticotropin-releasing factor 2a (CRF2a receptor) (human), Q13324 (Q13324 20-411): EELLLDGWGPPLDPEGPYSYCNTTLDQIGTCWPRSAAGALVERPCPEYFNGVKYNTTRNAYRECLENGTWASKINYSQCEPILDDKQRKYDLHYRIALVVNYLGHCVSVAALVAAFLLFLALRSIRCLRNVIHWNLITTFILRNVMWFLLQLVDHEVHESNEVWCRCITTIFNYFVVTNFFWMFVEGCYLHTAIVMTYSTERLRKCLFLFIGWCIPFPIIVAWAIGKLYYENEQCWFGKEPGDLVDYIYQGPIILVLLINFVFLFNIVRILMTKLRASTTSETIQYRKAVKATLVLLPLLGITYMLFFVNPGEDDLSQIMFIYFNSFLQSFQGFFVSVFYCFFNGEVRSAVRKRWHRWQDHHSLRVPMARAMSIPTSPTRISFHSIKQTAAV

Emax (% I) (CRF1R receptor) [%]	EC50 [nM] (cAMP) [1]	Binder
0	0.17	[NMeI]VLSLD[dV]PIKLK([γGlu-C16 diacid])KILLEQEKQKKQREQAETN[Dap]QILAQV-NH2 (N-terminus assumed; SMILES CC[C@H](C)[C@H](NC)C(=O)N[C@H](C(=O)N[C@@H](CC(C)C)C(=O)N[C@@H](CO)C(=O)N[C@@H](CC(C)C)C(=O)N[C@@H](CC(=O)O)C(=O)N[C@@H](C(=O)N1CCC[C@H]1C(=O)N[C@H](C(=O)N[C@@H](CCCCN)C(=O)N[C@@H](CC(C)C)C(=O)N[C@@H](CCCCNC(=O)CC[C@H](NC(=O)CCCCCCCCCCCCCCC(=O)O)C(=O)O)C(=O)N[C@@H](CCCCN)C(=O)N[C@H](C(=O)N[C@@H](CC(C)C)C(=O)N[C@@H](CC(C)C)C(=O)N[C@@H](CCC(=O)O)C(=O)N[C@@H](CCC(N)=O)C(=O)N[C@@H](CCC(=O)O)C(=O)N[C@@H](CCCCN)C(=O)N[C@@H](CCC(N)=O)C(=O)N[C@@H](CCCCN)C(=O)N[C@@H](CCCCN)C(=O)N[C@@H](CCC(N)=O)C(=O)N[C@@H](CCCNC(=N)N)C(=O)N[C@@H](CCC(=O)O)C(=O)N[C@@H](CCC(N)=O)C(=O)N[C@@H](C)C(=O)N[C@@H](CCC(=O)O)C(=O)N[C@H](C(=O)N[C@@H](CC(N)=O)C(=O)N[C@@H](CN)C(=O)N[C@@H](CCC(N)=O)C(=O)N[C@H](C(=O)N[C@@H](CC(C)C)C(=O)N[C@@H](C)C(=O)N[C@@H](CCC(N)=O)C(=O)N[C@H](C(N)=O)C(C)C)[C@@H](C)CC)[C@@H](C)O)[C@@H](C)CC)[C@@H](C)CC)C(C)C)C(C)C) [SEQ ID NO 70]
10	0.17	Ac-IVLSLD[dV]PIKLK([γGlu-C18 diacid])KILLEQEKQKKQREQAETN[Dap]QILAQV-NH2 (SMILES CC[C@H](C)[C@H](NC(C)=O)C(=O)N[C@H](C(=O)N[C@@H](CC(C)C)C(=O)N[C@@H](CO)C(=O)N[C@@H](CC(C)C)C(=O)N[C@@H](CC(=O)O)C(=O)N[C@@H](C(=O)N1CCC[C@H]1C(=O)N[C@H](C(=O)N[C@@H](CCCCN)C(=O)N[C@@H](CC(C)C)C(=O)N[C@@H](CCCCNC(=O)CC[C@H](NC(=O)CCCCCCCCCCCCCCCCC(=O)O)C(=O)O)C(=O)N[C@@H](CCCCN)C(=O)N[C@H](C(=O)N[C@@H](CC(C)C)C(=O)N[C@@H](CC(C)C)C(=O)N[C@@H](CCC(=O)O)C(=O)N[C@@H](CCC(N)=O)C(=O)N[C@@H](CCC(=O)O)C(=O)N[C@@H](CCCCN)C(=O)N[C@@H](CCC(N)=O)C(=O)N[C@@H](CCCCN)C(=O)N[C@@H](CCCCN)C(=O)N[C@@H](CCC(N)=O)C(=O)N[C@@H](CCCNC(=N)N)C(=O)N[C@@H](CCC(=O)O)C(=O)N[C@@H](CCC(N)=O)C(=O)N[C@@H](C)C(=O)N[C@@H](CCC(=O)O)C(=O)N[C@H](C(=O)N[C@@H](CC(N)=O)C(=O)N[C@@H](CN)C(=O)N[C@@H](CCC(N)=O)C(=O)N[C@H](C(=O)N[C@@H](CC(C)C)C(=O)N[C@@H](C)C(=O)N[C@@H](CCC(N)=O)C(=O)N[C@H](C(N)=O)C(C)C)[C@@H](C)CC)[C@@H](C)O)[C@@H](C)CC)[C@@H](C)CC)C(C)C)C(C)C) [SEQ ID NO 128]
4	0.76	[NMeI]VLSLD[dV]PIKLK([AEEA-AEEA-γGlu-C18 diacid])KILLEQEKQKKQREQAETN[Dap]QILAQV-NH2 (N-terminus assumed; SMILES CC[C@H](C)[C@H](NC)C(=O)N[C@H](C(=O)N[C@@H](CC(C)C)C(=O)N[C@@H](CO)C(=O)N[C@@H](CC(C)C)C(=O)N[C@@H](CC(=O)O)C(=O)N[C@@H](C(=O)N1CCC[C@H]1C(=O)N[C@H](C(=O)N[C@@H](CCCCN)C(=O)N[C@@H](CC(C)C)C(=O)N[C@@H](CCCCNC(=O)COCCOCCNC(=O)COCCOCCNC(=O)CC[C@H](NC(=O)CCCCCCCCCCCCCCCCC(=O)O)C(=O)O)C(=O)N[C@@H](CCCCN)C(=O)N[C@H](C(=O)N[C@@H](CC(C)C)C(=O)N[C@@H](CC(C)C)C(=O)N[C@@H](CCC(=O)O)C(=O)N[C@@H](CCC(N)=O)C(=O)N[C@@H](CCC(=O)O)C(=O)N[C@@H](CCCCN)C(=O)N[C@@H](CCC(N)=O)C(=O)N[C@@H](CCCCN)C(=O)N[C@@H](CCCCN)C(=O)N[C@@H](CCC(N)=O)C(=O)N[C@@H](CCCNC(=N)N)C(=O)N[C@@H](CCC(=O)O)C(=O)N[C@@H](CCC(N)=O)C(=O)N[C@@H](C)C(=O)N[C@@H](CCC(=O)O)C(=O)N[C@H](C(=O)N[C@@H](CC(N)=O)C(=O)N[C@@H](CN)C(=O)N[C@@H](CCC(N)=O)C(=O)N[C@H](C(=O)N[C@@H](CC(C)C)C(=O)N[C@@H](C)C(=O)N[C@@H](CCC(N)=O)C(=O)N[C@H](C(N)=O)C(C)C)[C@@H](C)CC)[C@@H](C)O)[C@@H](C)CC)[C@@H](C)CC)C(C)C)C(C)C) [SEQ ID NO 115]
4	0.08	Ac-IVLSLD[dV]PIKLK([γGlu-C18 diacid])KILLEQEKQKKQREQAETNEQILAQV-NH2 (SMILES CC[C@H](C)[C@H](NC(C)=O)C(=O)N[C@H](C(=O)N[C@@H](CC(C)C)C(=O)N[C@@H](CO)C(=O)N[C@@H](CC(C)C)C(=O)N[C@@H](CC(=O)O)C(=O)N[C@@H](C(=O)N1CCC[C@H]1C(=O)N[C@H](C(=O)N[C@@H](CCCCN)C(=O)N[C@@H](CC(C)C)C(=O)N[C@@H](CCCCNC(=O)CC[C@H](NC(=O)CCCCCCCCCCCCCCCCC(=O)O)C(=O)O)C(=O)N[C@@H](CCCCN)C(=O)N[C@H](C(=O)N[C@@H](CC(C)C)C(=O)N[C@@H](CC(C)C)C(=O)N[C@@H](CCC(=O)O)C(=O)N[C@@H](CCC(N)=O)C(=O)N[C@@H](CCC(=O)O)C(=O)N[C@@H](CCCCN)C(=O)N[C@@H](CCC(N)=O)C(=O)N[C@@H](CCCCN)C(=O)N[C@@H](CCCCN)C(=O)N[C@@H](CCC(N)=O)C(=O)N[C@@H](CCCNC(=N)N)C(=O)N[C@@H](CCC(=O)O)C(=O)N[C@@H](CCC(N)=O)C(=O)N[C@@H](C)C(=O)N[C@@H](CCC(=O)O)C(=O)N[C@H](C(=O)N[C@@H](CC(N)=O)C(=O)N[C@@H](CCC(=O)O)C(=O)N[C@@H](CCC(N)=O)C(=O)N[C@H](C(=O)N[C@@H](CC(C)C)C(=O)N[C@@H](C)C(=O)N[C@@H](CCC(N)=O)C(=O)N[C@H](C(N)=O)C(C)C)[C@@H](C)CC)[C@@H](C)O)[C@@H](C)CC)[C@@H](C)CC)C(C)C)C(C)C) [SEQ ID NO 130]
9	0.07	[NMeI]VLSLD[dV]PIKLK([γGlu-C18 diacid])KILLEQEKQKKQREQAETN[Aib]QILAQV-NH2 (N-terminus assumed; SMILES CC[C@H](C)[C@H](NC)C(=O)N[C@H](C(=O)N[C@@H](CC(C)C)C(=O)N[C@@H](CO)C(=O)N[C@@H](CC(C)C)C(=O)N[C@@H](CC(=O)O)C(=O)N[C@@H](C(=O)N1CCC[C@H]1C(=O)N[C@H](C(=O)N[C@@H](CCCCN)C(=O)N[C@@H](CC(C)C)C(=O)N[C@@H](CCCCNC(=O)CC[C@H](NC(=O)CCCCCCCCCCCCCCCCC(=O)O)C(=O)O)C(=O)N[C@@H](CCCCN)C(=O)N[C@H](C(=O)N[C@@H](CC(C)C)C(=O)N[C@@H](CC(C)C)C(=O)N[C@@H](CCC(=O)O)C(=O)N[C@@H](CCC(N)=O)C(=O)N[C@@H](CCC(=O)O)C(=O)N[C@@H](CCCCN)C(=O)N[C@@H](CCC(N)=O)C(=O)N[C@@H](CCCCN)C(=O)N[C@@H](CCCCN)C(=O)N[C@@H](CCC(N)=O)C(=O)N[C@@H](CCCNC(=N)N)C(=O)N[C@@H](CCC(=O)O)C(=O)N[C@@H](CCC(N)=O)C(=O)N[C@@H](C)C(=O)N[C@@H](CCC(=O)O)C(=O)N[C@H](C(=O)N[C@@H](CC(N)=O)C(=O)NC(C)(C)C(=O)N[C@@H](CCC(N)=O)C(=O)N[C@H](C(=O)N[C@@H](CC(C)C)C(=O)N[C@@H](C)C(=O)N[C@@H](CCC(N)=O)C(=O)N[C@H](C(N)=O)C(C)C)[C@@H](C)CC)[C@@H](C)O)[C@@H](C)CC)[C@@H](C)CC)C(C)C)C(C)C) [SEQ ID NO 137]
3	0.09	[NMeI]VLSLD[dV]PIKLK([γGlu-C16 diacid])KILLEQEKQKKQREQAETN[Abu]QILAQV-NH2 (N-terminus assumed; SMILES CC[C@H](NC(=O)[C@H](CC(N)=O)NC(=O)[C@@H](NC(=O)[C@H](CCC(=O)O)NC(=O)[C@H](C)NC(=O)[C@H](CCC(N)=O)NC(=O)[C@H](CCC(=O)O)NC(=O)[C@H](CCCNC(=N)N)NC(=O)[C@H](CCC(N)=O)NC(=O)[C@H](CCCCN)NC(=O)[C@H](CCCCN)NC(=O)[C@H](CCC(N)=O)NC(=O)[C@H](CCCCN)NC(=O)[C@H](CCC(=O)O)NC(=O)[C@H](CCC(N)=O)NC(=O)[C@H](CCC(=O)O)NC(=O)[C@H](CC(C)C)NC(=O)[C@H](CC(C)C)NC(=O)[C@@H](NC(=O)[C@H](CCCCN)NC(=O)[C@H](CCCCNC(=O)CC[C@H](NC(=O)CCCCCCCCCCCCCCC(=O)O)C(=O)O)NC(=O)[C@H](CC(C)C)NC(=O)[C@H](CCCCN)NC(=O)[C@@H](NC(=O)[C@@H]1CCCN1C(=O)[C@H](NC(=O)[C@H](CC(=O)O)NC(=O)[C@H](CC(C)C)NC(=O)[C@H](CO)NC(=O)[C@H](CC(C)C)NC(=O)[C@@H](NC(=O)[C@@H](NC)[C@@H](C)CC)C(C)C)C(C)C)[C@@H](C)CC)[C@@H](C)CC)[C@@H](C)O)C(=O)N[C@@H](CCC(N)=O)C(=O)N[C@H](C(=O)N[C@@H](CC(C)C)C(=O)N[C@@H](C)C(=O)N[C@@H](CCC(N)=O)C(=O)N[C@H](C(N)=O)C(C)C)[C@@H](C)CC) [SEQ ID NO 69]
